According to patent US20210347832:

Tests used:
C16-CathB-SIINFEKL = tested on: T1, C16-CathB-SIINFEKL
T1 sequence: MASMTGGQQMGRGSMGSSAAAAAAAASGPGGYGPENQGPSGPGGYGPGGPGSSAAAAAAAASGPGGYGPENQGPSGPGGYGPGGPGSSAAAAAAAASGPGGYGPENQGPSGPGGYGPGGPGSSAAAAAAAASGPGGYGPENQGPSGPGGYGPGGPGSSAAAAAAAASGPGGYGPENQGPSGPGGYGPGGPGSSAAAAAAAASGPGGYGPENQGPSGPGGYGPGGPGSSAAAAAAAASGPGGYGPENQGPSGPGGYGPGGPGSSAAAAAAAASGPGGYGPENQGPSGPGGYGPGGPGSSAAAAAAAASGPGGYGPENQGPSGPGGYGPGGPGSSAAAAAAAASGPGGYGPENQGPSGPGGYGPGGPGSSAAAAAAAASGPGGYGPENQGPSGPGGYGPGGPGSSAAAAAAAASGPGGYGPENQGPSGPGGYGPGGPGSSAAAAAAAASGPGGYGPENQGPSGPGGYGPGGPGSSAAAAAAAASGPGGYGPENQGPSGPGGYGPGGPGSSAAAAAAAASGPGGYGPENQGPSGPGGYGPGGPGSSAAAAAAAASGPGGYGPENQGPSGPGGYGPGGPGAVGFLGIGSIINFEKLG

C16-CathS-SIINFEKL = tested on: T2, C16-CathS-SIINFEKL
T2 sequence: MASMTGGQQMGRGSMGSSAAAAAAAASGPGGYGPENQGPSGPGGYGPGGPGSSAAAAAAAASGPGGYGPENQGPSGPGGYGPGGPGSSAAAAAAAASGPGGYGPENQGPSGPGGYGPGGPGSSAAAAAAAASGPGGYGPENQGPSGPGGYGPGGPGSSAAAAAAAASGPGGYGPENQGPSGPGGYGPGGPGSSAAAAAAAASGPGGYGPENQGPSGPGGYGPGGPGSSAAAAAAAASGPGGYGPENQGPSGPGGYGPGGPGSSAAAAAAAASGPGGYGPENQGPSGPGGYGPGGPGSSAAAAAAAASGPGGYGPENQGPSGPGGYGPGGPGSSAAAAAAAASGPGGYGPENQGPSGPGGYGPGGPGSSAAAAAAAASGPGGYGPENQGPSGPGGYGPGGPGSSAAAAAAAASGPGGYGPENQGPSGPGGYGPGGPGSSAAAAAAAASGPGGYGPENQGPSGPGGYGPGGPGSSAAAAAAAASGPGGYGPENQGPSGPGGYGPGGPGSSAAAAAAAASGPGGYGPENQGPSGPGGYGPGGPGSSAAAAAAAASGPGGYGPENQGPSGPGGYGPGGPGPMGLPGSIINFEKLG

Substance	release of cleaved SIINFEKL peptide from particles (RP-HPLC, 1-96 h) (C16-CathB-SIINFEKL)	release of cleaved SIINFEKL peptide from particles (RP-HPLC, 1-96 h) (C16-CathS-SIINFEKL)	release of cleaved SIINFEKL peptide from particles (RP-HPLC, 96 h) (C16-CathB-SIINFEKL)	release of cleaved SIINFEKL peptide from particles (RP-HPLC, 96 h) (C16-CathS-SIINFEKL)
cathepsin S enzyme	Cathepsin S also cleaves SIINFEKL (SEQ ID NO: 11) peptides from particles designed for cathepsin B release, but slower and in a lesser extent	Cathepsin S enzyme shows the better cleavage of SIINFEKL (SEQ ID NO: 11) peptides from both hybrid polypeptide particles	–	–
cathepsin B enzyme	–	–	Cathepsin S enzyme shows the better cleavage of SIINFEKL (SEQ ID NO: 11) peptides from both C16 hybrid protein particles than cathepsin B	Cathepsin S enzyme shows the better cleavage of SIINFEKL (SEQ ID NO: 11) peptides from both C16 hybrid protein particles than cathepsin B
